The text below walks through data of publication PMC4864278 (The EMBO Journal, 2016).

Data set [1] concerns the molecule itself. The experiment in a line: SAXS; SEC in line with SAXS, SWING beamline at SOLEIL, SEC-3 300 Å Agilent column, 15°C; 2.5 mg/ml TRIM25 RBCC, 6 mg/ml TRIM32 RBCC injected.
Data set [2] deals with the molecule itself. The data set is described as follows: SAXS; batch SAXS, Diamond Light Source beamline B21; at least three dilutions of each construct; concentrations as in Table 2.
Another data set deals with ubiquitin (bovine, UniProt P0CG53 1-76, isopeptide-linked to UBE2D1). The experiment in a line: crystal structure; TRIM25 RING domain (8 mg/ml) mixed with isopeptide-linked UBE2D1-Ub (10 mg/ml) at a 1:1 molar ratio; 100 mM Tris pH 8.5, 10% PEG 20,000, 18°C; 2.34 Å. The following applies: both partners purified.

The stoichiometry N is a count of units in the complex or per binding partner.

B1: TRIM25 RBCC (1–433) (domain or fragment, UniProt Q14258 1-433, looked up)
chain: MAELCPLAEELSCSICLEPFKEPVTTPCGHNFCGSCLNETWAVQGSPYLCPQCRAVYQARPQLHKNTVLCNVVEQFLQADLAREPPADVWTPPARASAPSPNAQVACDHCLKEAAVKTCLVCMASFCQEHLQPHFDSPAFQDHPLQPPVRDLLRRKCSQHNRLREFFCPEHSECICHICLVEHKTCSPASLSQASADLEATLRHKLTVMYSQINGASRALDDVRNRQQDVRMTANRKVEQLQQEYTEMKALLDASETTSTRKIKEEEKRVNSKFDTIYQILLKKKSEIQTLKEEIEQSLTKRDEFEFLEKASKLRGISTKPVYIPEVELNHKLIKGIHQSTIDLKNELKQCIGRLQEPTPSSGDPGEHDPASTHKSTRPVKKVSKEEKKSKKPPPVPALPSKLPTFGAPEQLVDLKQAGLEAAAKATSSHPNS
As for B1, the “stoichiometry N” value in data set [1] came to 2.

B2: TRIM32 RING/B-box2 (1–140) (domain or fragment, UniProt Q13049 1-140, looked up)
chain: MAAAAASHLNLDALREVLECPICMESFTEEQLRPKLLHCGHTICRQCLEKLLASSINGVRCPFCSKITRITSLTQLTDNLTVLKIIDTAGLSEAVGLLMCRSCGRRLPRQFCRSCGLVLCEPCREADHQPPGHCTLPVKE
Regarding B2, the “stoichiometry N” value in data set [2] is 2.

B3: TRIM32 RBCC (1–354) (domain or fragment, UniProt Q13049 1-354, looked up)
chain: MAAAAASHLNLDALREVLECPICMESFTEEQLRPKLLHCGHTICRQCLEKLLASSINGVRCPFCSKITRITSLTQLTDNLTVLKIIDTAGLSEAVGLLMCRSCGRRLPRQFCRSCGLVLCEPCREADHQPPGHCTLPVKEAAEERRRDFGEKLTRLRELMGELQRRKAALEGVSKDLQARYKAVLQEYGHEERRVQDELARSRKFFTGSLAEVEKSNSQVVEEQSYLLNIAEVQAVSRCDYFLAKIKQADVALLEETADEEEPELTASLPRELTLQDVELLKVGHVGPLQIGQAVKKPRTVNVEDSWAMEATASAASTSVTFREMDMSPEEVVASPRASPAKQRGPEAASNIQQ
Regarding B3, the “stoichiometry N” value in data set [1] is 4.

B4: TRIM25 RING domain (1–82) (domain or fragment, UniProt Q14258 1-82, looked up)
chain: MAELCPLAEELSCSICLEPFKEPVTTPCGHNFCGSCLNETWAVQGSPYLCPQCRAVYQARPQLHKNTVLCNVVEQFLQADLA
As to B4, in the data set with ubiquitin, the binding result was “binds”.
